Measurements as given in patent US20210388097A1 (SORRENTO THERAPEUTICS, published 2021).
Changes are numbered by the printed parent chain.

T1: Wild type human BCMA protein-mouse Fc (human)
T1 construct: also called wild type human BCMA-mouse Fc; wild type BCMA protein
T1 chain: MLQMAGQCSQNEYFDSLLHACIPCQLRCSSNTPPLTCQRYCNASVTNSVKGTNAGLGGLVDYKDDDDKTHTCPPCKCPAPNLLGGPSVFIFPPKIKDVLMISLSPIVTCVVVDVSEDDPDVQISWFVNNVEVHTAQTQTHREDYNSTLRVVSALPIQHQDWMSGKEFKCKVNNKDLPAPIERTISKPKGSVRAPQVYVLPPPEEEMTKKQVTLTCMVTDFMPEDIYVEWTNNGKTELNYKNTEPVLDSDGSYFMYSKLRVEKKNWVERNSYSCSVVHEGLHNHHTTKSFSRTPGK

T2: Mutant-1 human BCMA protein-mouse Fc (human)
T2 construct: also called mutant-1 human BCMA-mouse Fc (17G-18G); mutant-1 BCMA protein
T2 chain: T1 chain with L17G, L18G

T3: human BAFFR/TNFRSF13C (CD268) Fc tag, from Sino Biological (human, UniProt Q96RJ3 1-71, limits assumed)
T3 construct: Bought protein; not shown: Fc tag
T3 sequence (looked up): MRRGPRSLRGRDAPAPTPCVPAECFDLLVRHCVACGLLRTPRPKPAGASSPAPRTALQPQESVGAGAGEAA

T4: human TACI/TNFRSF13B (CD267) His-tag, from Sino Biological (human, UniProt O14836 1-166, limits assumed)
T4 construct: Bought protein; not shown: His-tag
T4 sequence (looked up): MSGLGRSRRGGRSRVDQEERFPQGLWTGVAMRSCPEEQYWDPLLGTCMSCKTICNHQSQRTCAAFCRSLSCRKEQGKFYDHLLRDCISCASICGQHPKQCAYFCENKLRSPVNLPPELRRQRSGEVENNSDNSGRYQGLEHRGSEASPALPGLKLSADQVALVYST

T5: his-tagged mouse BCMA protein (ACROBiosystems, catalog # BCA-M52H3) (mouse, UniProt O88472 1-49)
T5 construct: Bought protein; not shown: his tag
T5 chain (looked up): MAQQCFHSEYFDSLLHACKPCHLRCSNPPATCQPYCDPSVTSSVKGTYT

T6: BCMA on MM1R cells (human, UniProt Q02223)
T6 construct: full length, on the surface of MM1R multiple myeloma cells; also called MM1R multiple myeloma cell line
T6 sequence (receptor, looked up): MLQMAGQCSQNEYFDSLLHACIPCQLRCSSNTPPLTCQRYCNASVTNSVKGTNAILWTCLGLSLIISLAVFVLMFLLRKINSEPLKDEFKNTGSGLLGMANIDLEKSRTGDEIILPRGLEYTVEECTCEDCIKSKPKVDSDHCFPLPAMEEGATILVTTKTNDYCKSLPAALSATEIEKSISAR

T7: his-tagged human BCMA protein (ACROBiosystems, catalog # BCA-H522y-100 ug) (human, UniProt Q02223 1-54)
T7 construct: limits of the bought construct are not otherwise stated; also called recombinant his-tagged human BCMA; not shown: his tag of the bought protein
T7 sequence: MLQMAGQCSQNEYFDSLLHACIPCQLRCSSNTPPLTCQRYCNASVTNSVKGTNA

T8: human APRIL protein (R&D Systems, catalog #5860-AP-010/CF) (human, UniProt O75888 105-250, limits assumed)
T8 construct: Bought protein; also called human APRIL protein from R&D Systems; TNF13
T8 sequence (looked up): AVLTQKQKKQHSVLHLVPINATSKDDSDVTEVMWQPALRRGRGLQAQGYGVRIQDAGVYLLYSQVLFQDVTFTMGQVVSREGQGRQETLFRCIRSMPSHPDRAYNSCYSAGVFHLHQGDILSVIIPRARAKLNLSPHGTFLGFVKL

B1: Bluebird C11D5 antibody (BB anti-BCMA Ab) (antibody, V domains shown)
VH: QIQLVQSGPELKKPGETVKISCKASGYTFTDYSINWVKRAPGKGLKWMGWINTETREPAYAYDFRGRFAFSLETSASTAYLQINNLKYEDTATYFCALDYSYAMDYWGQGTTLTVSS
VL: DIVLTQSPASLAMSLGKRATISCRASESVSVIGAHLIHWYQQKPGQPPKLLIYLASNLETGVPARFSGSGSGTDFTLTIDPVEEDDVAIYSCLQSRIFPRTFGGGTKLEIK
notes: Comparator anti-BCMA antibody; also called BB C11D5; Bluebird antibody
B2: Mutant-2 human BCMA protein-mouse Fc (Fc fusion)
chain: MLQMAGQCSQNEYFDSLLHACIPCQLRCSSNPPGTCQRYCNASVTNSVKGTNAGLGGLVDYKDDDDKTHTCPPCKCPAPNLLGGPSVFIFPPKIKDVLMISLSPIVTCVVVDVSEDDPDVQISWFVNNVEVHTAQTQTHREDYNSTLRVVSALPIQHQDWMSGKEFKCKVNNKDLPAPIERTISKPKGSVRAPQVYVLPPPEEEMTKKQVTLTCMVTDFMPEDIYVEWTNNGKTELNYKNTEPVLDSDGSYFMYSKLRVEKKNWVERNSYSCSVVHEGLHNHHTTKSFSRTPGK
notes: also called mutant-2 human BCMA-mouse Fc (del32-35G); mutant-2 BCMA protein
B3: GSK J6M0 antibody (GSK anti-BCMA Ab) (antibody, V domains shown)
VH: QVQLVQSGAEVKKPGSSVKVSCKASGGTFSNYWMHWVRQAPGQGLEWMGATYRGHSDTYYNQKFKGRVTITADKSTSTAYMELSSLRSEDTAVYYCARGAIYDGYDVLDNWGQGTLVTVSS
VL: DIQMTQSPSSLSASVGDRVTITCSASQDISNYLNWYQQKPGKAPKLLIYYTSNLHSGVPSRFSGSGSGTDFTLTISSLQPEDFATYYCQQYRKLPWTFGQGTKLEIK
notes: Comparator anti-BCMA antibody; captured by anti-human Fc in SPR, so it carries a human Fc; also called GSK antibody

What was measured:
[1] = target: B2; assay: bio-layer interferometry, antibody (100 nM) loaded on AR2G sensor, BCMA-mouse Fc in solution
Experimental: (§1) The results of the protein-protein binding assays described in Example 8 were used to design an epitope mapping assay using bio-layer interferometry. Various anti-BCMA antibodies (2C5, 2E1, 4C9, 6G8, Bluebird C11D5, GSK J6M0, or isotype control) (100 nM) were loaded onto AR2G sensors and reacted with buffer or one of three types of human BCMA proteins including: including: wild type human BCMA-mouse Fc (SEQ ID NO:5), mutant-1 human BCMA-mouse Fc (double mutation 17G-18G; SEQ ID NO:6), or mutant-2 human BCMA-mouse Fc (mutation del32-35G; SEQ ID NO:7).

[2] = target: T1, Wild type human BCMA protein-mouse Fc; assay: as above
Experimental: as §1

[3] = target: T2, Mutant-1 human BCMA protein-mouse Fc; assay: as above
Experimental: as §1

[4] = target: T3, human BAFFR/TNFRSF13C (CD268) Fc tag, …; assay: bio-layer interferometry, antibody coupled to AR2G sensor, BAFFR in solution
Experimental: (§2) Bio-layer interferometry was used to measure cross-binding between (1) two different anti-BCMA antibodies (BCA7-2C5 or BB C11D5) or a control isotype, and (2) various human antigens including TACI and BAFFR.
(§3) Immobilization of antibody was achieved through standard EDC-catalyzed amide bond formation to create a covalent bond between a reactive amine on the protein and the carboxy-terminated biosensor surface. Briefly, AR2G sensors (OctetRED96e from ForteBio) were activated by EDC-NHS for 6 minutes, then 5 ug/ml antibodies were loaded (BCA7-2C5 antibody, Bluebird C11D5 chimeric antibody, or a human IgG isotype antibody) in 10 mM acetate buffer pH 5.0 for 6 minutes, followed by quenching for 6 minutes with 1M ethanolamine pH 8.5. The 3 minutes baseline step removed any unbound antibody from the biosensor, followed by 1.5 minutes each for association of three analyte proteins TACI (human TACI/TNFRSF13B (CD267) His-tag, from Sino Biological, 1 ug/mL in PBS), BAFFR (human BAFFR/TNFRSF13C (CD268) Fc tag) from Sino Biological, 2 ug/mL in PBS), and human BCMA protein (in-house made with mouse Fc, 2 ug/mL in PBS).

[5] = target: T4, human TACI/TNFRSF13B (CD267) His-tag, …; assay: bio-layer interferometry, antibody coupled to AR2G sensor, TACI in solution
Experimental: as §2, §3

[6] = target: T5, his-tagged mouse BCMA protein …; assay: ELISA, his-tagged BCMA on Ni-NTA plate at 2 µg/mL, anti-human Fc HRP
Experimental: Cross-reactivity of the anti-BCMA antibodies with his-tagged BCMA protein from human, cynomolgus or mouse, were analyzed by ELISA assay. The Ni-NTA plate was coated with his-tagged BCMA proteins (listed in Example 2 above) at 2 μg/mL, then reacted with an anti-BCMA antibody at 20 μg/mL, and reacted with anti-human Fc HRP (KPL Scientific, catalog #5220-0279) at 1:2500 dilution. […] Each set includes 5 test antigens or buffer, from left to right: negative control antigen, his-tagged mouse BCMA protein, his-tagged cynomolgus BCMA protein, his-tagged human BCMA protein, and Dulbecco's Phosphate-Buffered Saline.

BCMA on MM1R cells = target: T6, BCMA on MM1R cells; assay: flow cytometry on MM1R cells, 5x serial dilution, FITC goat anti-human IgG F(ab')2, GeoMean BL1-H
Text: Flow cytometry was used to test antibody binding to multiple myeloma cell line MM1R, using various anti-BCMA antibodies (5× serial dilution) and 80,000 cells per well. The secondary antibody was FITC AffiniPure FAB2 fragment goat anti-human IgG (H+L) (from Jackson Immuno Research). […] A BL-1 detector (IntelliCyt iQue Screener Plus) which detects at 530 nm was used. The geometric mean is reported.

[7] = target: T7, his-tagged human BCMA protein …; assay: ELISA, his-tagged BCMA on Ni-NTA plate at 2 µg/mL, antibody at 20 µg/mL
[8] = target: T8, human APRIL protein (R&D Systems, …); assay: bio-layer interferometry, APRIL on AR2G sensor, BCMA-mouse Fc at 2.5 µg/mL
Experimental: Bio-layer interferometry was also used to measure binding between APRIL protein, and wild type or mutant BCMA proteins. Human APRIL protein (R&D Systems, catalog #5860-AP-010/CF) was loaded onto an Ar2G sensor (OctetRET96e) and reacted with 2.5 μg/mL of one of three types of human BCMA proteins including: wild type human BCMA-mouse Fc (SEQ ID NO:5), mutant-1 human BCMA-mouse Fc (17G-18G; SEQ ID NO:6), or mutant-2 human BCMA-mouse Fc (de132-35G; SEQ ID NO:7).

[9] = target: T7, his-tagged human BCMA protein …; assay: SPR (Biacore T200, 25 C), antibody captured on anti-human Fc, his-tagged human BCMA as analyte, 1:1 binding model
Experimental: Binding kinetics of anti-BCMA antibodies with his-tagged human BCMA protein (ACROBiosystems, catalog # BCA-H522y-100 ug, UniProt Q02223-1, SEQ ID NO:92) was measured using surface plasmon resonance (SPR). Kinetic interactions between the antibodies and his-tagged BCMA proteins were measured at 25° C. using Biacore T200 surface plasmon resonance (GE Healthcare). Anti-human fragment crystallizable region (Fc region) antibody was immobilized on a CM5 sensor chip to approximately 8000 resonance units (RU) using standard N-hydroxysuccinimide/N-Ethyl-N′-(3-dimethylaminopropyl) carbodiimide hydrochloride (NHS/EDC) coupling methodology. The anti-BCMA antibody (2 μg/mL) was captured for 60 seconds at a flow rate of 10 μL/minute. The his-tagged BCMA protein was run at six different dilutions of 3.12, 6.25, 12.5, 25, 50, 100 and 200 nM, in a running buffer of 0.01 M HEPES pH 7.4, 0.15 M NaCl, 3 mM EDTA, 0.05% v/v Surfactant P20 (HBS-EP+). The 25 nM BCMA protein run was measured two times. All measurements were conducted in HBS-EP+ buffer with a flow rate of 30 μL/minute. A 1:1 (Langmuir) binding model was used to fit the data. The SPR sensorgrams of anti-BCMA antibodies BCA7, GSK J6M0, BC4C9 and BC5C4 are shown in FIGS. 1, 2, 3 and 4, respectively, and their corresponding binding kinetics are listed in Table 3.

Row | Binder | binding result [1] | binding result [2] | binding result [3] | binding result [4] | binding result [5] | binding result [6] | binding result (BCMA on MM1R cells) | binding result [7] | binding result [8] | Kd [9] | koff [9] | kon [9]
1 | B1 | binds | binds | binds | no binding (tested: 2 ug/mL) | no binding (tested: 1 ug/mL) | no binding (tested: 20 µg/mL) | binds | binds |  |  |  | 
2 | B2 |  |  |  |  |  |  |  |  | binds |  |  | 
3 | B3 |  | binds | binds |  |  | no binding (tested: 20 µg/mL) |  |  |  | 2.52 nM | 0.000496 s⁻¹ | 197000 M⁻¹ s⁻¹
